System: O=C[C@H](O)[C@H](O)COP(=O)(O)O
Assay: purified protein

Substance: 3-deoxy-D-arabino-heptulosonate 7-phosphate synthase (MtuDAH7PS) (Mycobacterium tuberculosis H37Rv)
- Km: 28 ± 2 µM
- kcat: 4.7 ± 0.1 s⁻¹
- kcat/Km: 170000 ± 20000 M⁻¹ s⁻¹

Source: PMC4851294 (PLoS ONE, 2016)
